How the values were obtained:
Experiment in all cases: ELISA on denatured VLP (carbonate pH 10.6 + DTT; threshold OD>0.5)
[1] = molecular target: T1, denatured VLPs of BK polyomavirus VP-1 protein, serotype Ia (BK virus (BKPyV), serotype Ia, UniProt P03088 1-361)
T1 construct: also called Ia denatured; linearised VP-1 protein
T1 chain: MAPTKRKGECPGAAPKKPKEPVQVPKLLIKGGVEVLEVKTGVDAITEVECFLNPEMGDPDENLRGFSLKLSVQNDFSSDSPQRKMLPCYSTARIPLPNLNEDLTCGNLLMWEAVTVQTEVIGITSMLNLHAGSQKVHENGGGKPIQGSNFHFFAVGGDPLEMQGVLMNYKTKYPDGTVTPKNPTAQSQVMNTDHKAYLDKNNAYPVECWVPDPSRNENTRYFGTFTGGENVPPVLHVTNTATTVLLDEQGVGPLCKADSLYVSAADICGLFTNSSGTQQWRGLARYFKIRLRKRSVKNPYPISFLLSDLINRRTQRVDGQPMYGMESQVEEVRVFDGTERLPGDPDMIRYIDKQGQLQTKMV
Protocol: (§1) The wells were then blocked for 1 hour at +37° C. with a PBS/SVF mixture. After dilution in a dilution buffer containing SVF, PBS and Tween® 20, the individual culture supernatants or purified antibodies were added for 1 hour at +37° C. The wells were washed four times in a row with Wash Buffer and a secondary anti-mouse peroxidase antibody was added to the 1/2000 dilution for 1 hour at +37° C. The wells were washed again four times in a row and the substrate was added for 30 minutes at room temperature. A stop solution was added and then each well was read by measuring the absorbance at 492 nm with a spectrophotometer. The value obtained for the average of the control wells (PBS in the first step) was subtracted from the optical density values obtained for each well (detection threshold: OD>0.5).

[2] = molecular target: T2, denatured VLPs of BK polyomavirus VP-1 protein, serotype Ib2 (BK virus (BKPyV), serotype Ib2, UniProt P03088 1-362)
T2 construct: also called Ib2 denatured
T2 chain: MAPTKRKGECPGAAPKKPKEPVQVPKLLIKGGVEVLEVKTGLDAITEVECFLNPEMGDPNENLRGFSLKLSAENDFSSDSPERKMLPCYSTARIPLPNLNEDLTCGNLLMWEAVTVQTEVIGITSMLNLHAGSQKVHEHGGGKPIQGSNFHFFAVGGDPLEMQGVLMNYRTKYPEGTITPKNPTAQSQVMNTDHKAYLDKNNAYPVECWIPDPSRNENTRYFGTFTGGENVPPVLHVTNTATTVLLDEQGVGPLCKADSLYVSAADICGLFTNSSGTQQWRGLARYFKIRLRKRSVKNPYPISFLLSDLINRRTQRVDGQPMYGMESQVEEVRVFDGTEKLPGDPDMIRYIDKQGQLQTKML
Protocol: as §1

[3] = molecular target: T3, denatured VLPs of BK polyomavirus VP-1 protein, serotype II (BK virus (BKPyV), serotype II, UniProt P14996 1-362)
T3 construct: also called II denatured
T3 chain: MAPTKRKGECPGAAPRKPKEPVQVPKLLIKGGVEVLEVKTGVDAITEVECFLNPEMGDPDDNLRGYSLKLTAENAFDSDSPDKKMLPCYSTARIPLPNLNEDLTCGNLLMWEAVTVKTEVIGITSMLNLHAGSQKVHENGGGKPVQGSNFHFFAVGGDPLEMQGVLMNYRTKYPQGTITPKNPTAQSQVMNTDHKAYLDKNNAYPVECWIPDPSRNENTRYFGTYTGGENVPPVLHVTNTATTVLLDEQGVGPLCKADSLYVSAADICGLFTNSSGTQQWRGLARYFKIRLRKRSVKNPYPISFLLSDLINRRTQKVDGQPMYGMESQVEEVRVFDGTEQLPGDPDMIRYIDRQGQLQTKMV
Protocol: as §1

B1: monoclonal antibody ‘18A2’ derived from hybridoma 18A2 (antibody, V domains shown)
VH: DVQLQESGPGLVKPSQSLSLTCSVTGYSITSGYYWNWIRQFPGNKLEWMGYISYDGSNNYNPSLKNRISITRDTSKNQFFLKLNSVTTEDTATYYCARWEGTTDYWGQGTTLTVSS
VL: not shown
notes: Mouse hybridoma antibody
- OD 492 nm [1]: 3.98 OD
- OD 492 nm [2]: 0.16 OD
- OD 492 nm [3]: 0.63 OD
